Reference: the supplement of paper PMC7877785
± gives the uncertainty stated by the source.

Test: self-splicing fitness, log relative to wild type (ln ratio); higher = more splicing; Tetrahymena group I intron in knt gene, E. coli kanamycin selection, DiMSum; sequences stand for … in CUCUCU…GGAGGGAAAAGUUAUCAGGCAUGCACCUGGUAGCUAGUCUUUAAACCAAUAGAUUGCAUCGGUUUAAAAGGCAAGACCGUCAAAUUGCGGGAAAGGGGUCAACAGCCGUUCAGUACCAAGUCUCAGGGGAAACUUUGAGAUGGCCUUGCAAAGGGUAUGGUAAUAAGCUGACGGACAUGGUCCUAACCACGCAGCCAAGUCCUAAGUCAACAGAUCUUCUGUUGAUAUGGAUGCAGUUCACAGACUAAAUGUCGGUCGGGGAAGAUGUAUUCUUCUCAUAAGAUAUAGUCGGACCUCUCCUUAAUGGGAGCUAGCGGAUGAAGUGAUGCAACACUGGAGCCGCUGGGAACUAAUUUGUAUGCGAAAGUAUAUUGAUUAGUUUUGGAGUACUCGUGGUCG
Method in brief: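 Colonies from six replicate transformations of E. coli BL21(DE3) were pooled and amplicon-sequenced on an Illumina HiSeq 2500. The library placed an intron with all eight P1ex-region nucleotides randomised inside the knt kanamycin-resistance gene on pET-22b(+), and cells grew overnight at 37°C or 30°C on LB agar with or without 25 μg/mL kanamycin (plus 100 μg/mL carbenicillin, 50 μM IPTG, 0.2% rhamnose). Fitness is the DiMSum error-weighted combination of wild-type-normalised replicate fold changes, kanamycin versus none.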

| Sequence | self-splicing fitness (ln) (30 °C) | self-splicing fitness (ln) (37 °C) |
| --- | --- | --- |
| CCCUAGCAAUAUUACGAGGU | -3.87 ± 0.16 | -0.753 ± 0.1 |
| AUCCAGCAAUAUUACGCGGU |  | -3.32 ± 0.42 |
| GAACAGCAAUAUUACGAAGC | -1.37 ± 0.1 | -1.14 ± 0.13 |
| CAUUAGCAAUAUUACGUCGU | -4.03 ± 0.26 | -0.437 ± 0.17 |
| UGAAAGCAAUAUUACGCGAG | -1.63 ± 0.11 | -0.0143 ± 0.1 |
| AAGCAGCAAUAUUACGACAA | -1.06 ± 0.075 | -0.277 ± 0.072 |
| UCACAGCAAUAUUACGUUUU | -3.72 ± 0.14 | -3.09 ± 0.15 |
| AUCGAGCAAUAUUACGGACC | -0.501 ± 0.48 |  |
| AUACAGCAAUAUUACGGGGU | -3.29 ± 0.13 | -1.69 ± 0.093 |
| UUAAAGCAAUAUUACGUCUG | 0.0385 ± 0.075 | 0.255 ± 0.096 |
| GCUCAGCAAUAUUACGGAUA | -1.34 ± 0.12 | -0.254 ± 0.1 |
| AUUUAGCAAUAUUACGUCGU | -1.7 ± 0.11 | -1.33 ± 0.1 |
| CAGGAGCAAUAUUACGGCUG | -2.97 ± 0.18 | -2.37 ± 0.22 |
| CAGUAGCAAUAUUACGUCUG | -3.23 ± 0.11 | -2.6 ± 0.13 |
| AGUUAGCAAUAUUACGUGUG | -3.18 ± 0.15 | -1.8 ± 0.13 |
| CCUAAGCAAUAUUACGCUGU | -3.8 ± 0.33 | -2.61 ± 0.33 |
| UCAAAGCAAUAUUACGAGAU | -4.03 ± 0.33 | -1.91 ± 0.2 |
| CACAAGCAAUAUUACGCAUA | -3.87 ± 0.19 | -1.12 ± 0.11 |
| GAUUAGCAAUAUUACGGAGC | -3.23 ± 0.17 | -1.23 ± 0.13 |
| GGAUAGCAAUAUUACGCCAA | -2.37 ± 0.41 | -1.01 ± 0.25 |
| UAACAGCAAUAUUACGCGCG | -0.332 ± 0.064 | -0.361 ± 0.078 |
| ACGUAGCAAUAUUACGAGCG | -1.53 ± 0.11 | -0.668 ± 0.12 |
| AGCAAGCAAUAUUACGGGCA | -0.263 ± 0.071 | 0.111 ± 0.084 |
| UUGAAGCAAUAUUACGCAGG | -1.15 ± 0.092 | -0.283 ± 0.098 |
| CUGGAGCAAUAUUACGCUAU | -3.45 ± 0.38 | -2.67 ± 0.38 |

| Sequence | self-splicing fitness (ln) (30 °C) | self-splicing fitness (ln) (37 °C) |
| --- | --- | --- |
| CUGUAGCAAUAUUACGCAUC | -3.45 ± 0.32 | -2.69 ± 0.34 |
| UGCUAGCAAUAUUACGUCAG | -2.36 ± 0.12 | -1.33 ± 0.12 |
| UCCGAGCAAUAUUACGCGAA | -2.94 ± 0.4 | -1.84 ± 0.4 |
| AGAAAGCAAUAUUACGUUUG | -2.48 ± 0.14 | -2.24 ± 0.21 |
| ACCCAGCAAUAUUACGAUAC | -2.94 ± 0.17 | -0.588 ± 0.13 |
| CUCUAGCAAUAUUACGUACA | -3.04 ± 0.38 | -1.89 ± 0.24 |
| AAUGAGCAAUAUUACGCGUC | -3.02 ± 0.29 | -2.25 ± 0.29 |
| CUCCAGCAAUAUUACGUCUC | -2.97 ± 0.17 | -3.71 ± 0.33 |
| UGCUAGCAAUAUUACGUUUU | -3.29 ± 0.18 | -1.94 ± 0.14 |
| GCUAAGCAAUAUUACGCUAG | -2.94 ± 0.35 | -3.64 ± 0.4 |
| AUAUAGCAAUAUUACGUCUA | -0.735 ± 0.12 | -0.495 ± 0.12 |
| CGAUAGCAAUAUUACGUUUG | -2.29 ± 0.081 | -0.812 ± 0.081 |
| ACAGAGCAAUAUUACGUAUA | -3.37 ± 0.26 | -2.72 ± 0.31 |
| CGCUAGCAAUAUUACGGGUA | -0.542 ± 0.11 | -0.011 ± 0.12 |
| GACCAGCAAUAUUACGAACC | -0.191 ± 0.09 | 0.0652 ± 0.092 |
| CGCAAGCAAUAUUACGACGC | -3.59 ± 0.2 | -2.03 ± 0.16 |
| CUUAAGCAAUAUUACGUGGA | -3.7 ± 0.18 | -3.42 ± 0.16 |
| UGUGAGCAAUAUUACGGACU | -2.24 ± 0.22 | -0.378 ± 0.22 |
| CCGUAGCAAUAUUACGCCGC | -3.84 ± 0.26 | -2.68 ± 0.34 |
| UCGGAGCAAUAUUACGGGGU | -3.57 ± 0.29 |  |
| GGACAGCAAUAUUACGGAAA | -2.04 ± 0.15 | -1.23 ± 0.14 |
| AUGAAGCAAUAUUACGACAU | 0.292 ± 0.012 | 0.49 ± 0.032 |
| AAGUAGCAAUAUUACGUCAA | -2.25 ± 0.1 | -0.583 ± 0.083 |
| UACCAGCAAUAUUACGGGAC | -3.46 ± 0.19 | -2.31 ± 0.2 |
| GAUAAGCAAUAUUACGUCUA | -1.18 ± 0.075 | -0.275 ± 0.085 |

| Sequence | self-splicing fitness (ln) (30 °C) | self-splicing fitness (ln) (37 °C) |
| --- | --- | --- |
| GUGUAGCAAUAUUACGGCUA | -1.84 ± 0.34 | -2.77 ± 0.32 |
| GUCGAGCAAUAUUACGUUUC | -2.08 ± 0.21 | -1.88 ± 0.2 |
| UGGCAGCAAUAUUACGGGUG | -0.883 ± 0.071 | -0.596 ± 0.088 |
| AUAAAGCAAUAUUACGAUUG | -2.38 ± 0.14 | -1.14 ± 0.16 |
| AAGCAGCAAUAUUACGGCGG | -1.13 ± 0.12 | -1.01 ± 0.14 |
| AGUCAGCAAUAUUACGCGUU | 0.159 ± 0.077 | 0.0714 ± 0.085 |
| ACAAAGCAAUAUUACGCCUC | -2.8 ± 0.28 | -2.2 ± 0.3 |
| AGUCAGCAAUAUUACGACCU | -0.358 ± 0.081 | 0.103 ± 0.11 |
| CGCGAGCAAUAUUACGGCUU | -3.01 ± 0.42 | -2.54 ± 0.26 |
| UCGUAGCAAUAUUACGAGCG | -0.988 ± 0.14 | -1.13 ± 0.21 |
| CUAAAGCAAUAUUACGCAUC | -4.03 ± 0.35 |  |
| UAAAAGCAAUAUUACGAUCA | -0.503 ± 0.08 | 0.0071 ± 0.11 |
| CCCUAGCAAUAUUACGCAGU | -4.87 ± 0.36 | -2.2 ± 0.22 |
| UUCAAGCAAUAUUACGACUA | 0.15 ± 0.12 | 0.446 ± 0.14 |
| GGCAAGCAAUAUUACGAUUA | -0.726 ± 0.1 | -0.234 ± 0.093 |
| AUGUAGCAAUAUUACGGAGU | -3.01 ± 0.23 | -1.2 ± 0.18 |
| CCUCAGCAAUAUUACGUUCU | -4.28 ± 0.34 | -3.23 ± 0.36 |
| GACAAGCAAUAUUACGGAAG | -2.75 ± 0.21 | -3.29 ± 0.37 |
| AUUAAGCAAUAUUACGCUAA | -1.89 ± 0.17 | -0.434 ± 0.13 |
| CCGUAGCAAUAUUACGGGGU | -3.96 ± 0.24 | -1.71 ± 0.2 |
| ACCAAGCAAUAUUACGACGU | -0.00288 ± 0.056 | 0.552 ± 0.063 |
| GGAAAGCAAUAUUACGCUUG | -2.12 ± 0.14 | -1.15 ± 0.21 |
| GUAGAGCAAUAUUACGUGAC | -2.42 ± 0.16 | -1.31 ± 0.19 |
| UAAUAGCAAUAUUACGCUCC | -1.74 ± 0.39 | -0.899 ± 0.32 |
| ACCGAGCAAUAUUACGUUGC | -3.29 ± 0.32 | -1.33 ± 0.25 |

| Sequence | self-splicing fitness (ln) (30 °C) | self-splicing fitness (ln) (37 °C) |
| --- | --- | --- |
| UUUGAGCAAUAUUACGUGAG | -1.35 ± 0.11 | 0.29 ± 0.14 |
| GCAUAGCAAUAUUACGAUCU | -0.849 ± 0.075 | -0.178 ± 0.081 |
| CUAUAGCAAUAUUACGUAUU | -3.8 ± 0.32 |  |
| CAGUAGCAAUAUUACGCUAU | -3.57 ± 0.23 | -3.27 ± 0.32 |
| GUUCAGCAAUAUUACGCAGG | -1.35 ± 0.14 | -1.28 ± 0.17 |
| GCCUAGCAAUAUUACGGUCU | -1.12 ± 0.067 | -1.08 ± 0.078 |
| AGUCAGCAAUAUUACGCAAU | -0.997 ± 0.075 | 0.245 ± 0.096 |
| CCGAAGCAAUAUUACGAUCG | -0.383 ± 0.065 | -0.283 ± 0.076 |
| UUAGAGCAAUAUUACGACCC | -2.63 ± 0.49 | -1.74 ± 0.49 |
| CCCCAGCAAUAUUACGUAGU | -3.09 ± 0.078 | -3.07 ± 0.16 |
| UACCAGCAAUAUUACGUUCA | -0.401 ± 0.06 | 0.27 ± 0.08 |
| GUUCAGCAAUAUUACGCUAG | -0.585 ± 0.073 | -0.102 ± 0.093 |
| CAUCAGCAAUAUUACGAUCU | -0.778 ± 0.06 | -0.771 ± 0.087 |
| GGGAAGCAAUAUUACGAUGA | -0.977 ± 0.13 | -0.771 ± 0.13 |
| GCGCAGCAAUAUUACGGGCA | -2.9 ± 0.14 | -1.24 ± 0.11 |
| GUCUAGCAAUAUUACGGGGG | -2.58 ± 0.33 | -1.46 ± 0.17 |
| CGAUAGCAAUAUUACGCUCU | -0.961 ± 0.12 | 0.447 ± 0.12 |
| GAGUAGCAAUAUUACGAAAA | -2.8 ± 0.38 |  |
| CGCCAGCAAUAUUACGCUCA | -0.656 ± 0.073 | 0.163 ± 0.083 |
| AUAGAGCAAUAUUACGCCGG | -2.52 ± 0.31 | -1.94 ± 0.47 |
| UGUAAGCAAUAUUACGAAAA | -1.7 ± 0.15 | -1.15 ± 0.16 |
| UGGGAGCAAUAUUACGUUUU | -4.43 ± 0.4 | -2.51 ± 0.33 |
